Measured values as given in the supplement of paper PMC10567573.

B1: TRIM43 (parent)
chain: FCDMDKSLLCLLCSNSQEHGAHKH

Variants of: B1
Assay: protein stability index of a GFP-peptide fusion (GPS, HEK-293T) (PSI 1-6); higher = more stable
Conditions: c terminus: a fixed tail appended
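Also: lentivirally expressed fusions sorted by FACS into six bins by GFP to DsRed ratio, PSI derived from sequencing read proportions per bin multiplied by bin number.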

Point of comparison: FCDMDKSLLCLLCSNEQEHGAHKH [S16E], protein stability index 1.8. Against it:
- FCDMDKSLLCLLCSNSQEPGAHKH [H19P] — higher, 2.05
- FCDMDKSLLCLLCSNSQERGAHKH [H19R] — higher, 2.03
- FCDMDKSLLCLLCSNSQEIGAHKH [H19I] — higher, 1.87
- FCDMDKSLLCLLCSNSQEAGAHKH [H19A] — higher, 1.91
- FCDMDKSLLCLLCSNSQEDGAHKH [H19D] — higher, 2.38
- FCDMDKSLLCLLCSNSQENGAHKH [H19N] — lower, 1.75
- FCDMDKSLLCLLCSNSQEFGAHKH [H19F] — lower, 1.67
- FCDMDKSLLCLLCSNSQETGAHKH [H19T] — higher, 1.83
- FCDMDKSLLCLLCSNSQEQGAHKH [H19Q] — lower, 1.41
- FCDMDKSLLCLLCSNSQEYGAHKH [H19Y] — higher, 1.91
- FCDMDKSLLCLLCSNSQELGAHKH [H19L] — lower, 1.42
- FCDMDKSLLCLLCSNSQEGGAHKH [H19G] — higher, 2.18
- FCDMDKSLLCLLCSNSQESGAHKH [H19S] — higher, 2.01
- FCDMDKSLLCLLCSNSQEEGAHKH [H19E] — higher, 1.98
- FCDMDKSLLCLLCSNSQEWGAHKH [H19W] — lower, 1.51
- FCDMDKSLLCLLCSNSQECGAHKH [H19C] — higher, 2.03
- FCDMDKSLLCLLCSNSQEVGAHKH [H19V] — lower, 1.59
- FCDMDKSLLCLLCSNSQEMGAHKH [H19M] — higher, 2.03
- FCDMDKSLLCLLCSNSQEKGAHKH [H19K] — higher, 2.11
- FCDMDKSLLCLLCSNSQEHGIHKH [A21I] — lower, 1.47
- FCDMDKSLLCLLCSNSQEHGEHKH [A21E] — higher, 1.83
- FCDMDKSLLCLLCSNSQEHGVHKH [A21V] — higher, 1.85
- FCDMDKSLLCLLCSNSQEHGCHKH [A21C] — higher, 2.38
- FCDMDKSLLCLLCSNSQEHGKHKH [A21K] — higher, 1.98
- FCDMDKSLLCLLCSNSQEHGPHKH [A21P] — higher, 2.22
- FCDMDKSLLCLLCSNSQEHGWHKH [A21W] — lower, 1.54
- FCDMDKSLLCLLCSNSQEHGNHKH [A21N] — higher, 1.84
- FCDMDKSLLCLLCSNSQEHGSHKH [A21S] — higher, 2.02
- FCDMDKSLLCLLCSNSQEHGYHKH [A21Y] — lower, 1.48
- FCDMDKSLLCLLCSNSQEHGMHKH [A21M] — higher, 2.33
- FCDMDKSLLCLLCSNSQEHGGHKH [A21G] — higher, 2.26
- FCDMDKSLLCLLCSNSQEHGFHKH [A21F] — higher, 2.1
- FCDMDKSLLCLLCSNSQEHGRHKH [A21R] — higher, 2.16
- FCDMDKSLLCLLCSNSQEHGHHKH [A21H] — higher, 1.98
- FCDMDKSLLCLLCSNSQEHGTHKH [A21T] — higher, 2.07
- FCDMDKSLLCLLCSNSQEHGDHKH [A21D] — higher, 2.08
- FCDMDKSLLCLLCSNSQEHGQHKH [A21Q] — higher, 2.23
- FCDMDKSLLCLLCSNSQEHGLHKH [A21L] — higher, 1.97
- FCDMDKSLLCLLCSNSQEHGAIKH [H22I] — higher, 2.17
- FCDMDKSLLCLLCSNSQEHGAAKH [H22A] — lower, 1.77
- FCDMDKSLLCLLCSNSQEHGADKH [H22D] — higher, 2.11
- FCDMDKSLLCLLCSNSQEHGACKH [H22C] — higher, 2.59
- FCDMDKSLLCLLCSNSQEHGAEKH [H22E] — lower, 1.53
- FCDMDKSLLCLLCSNSQEHGAGKH [H22G] — lower, 1.78
- FCDMDKSLLCLLCSNSQEHGAFKH [H22F] — higher, 2.17
- FCDMDKSLLCLLCDNSQEHGAHKH [S14D] — lower, 1.72
- FCDMDKSLLCLLCMNSQEHGAHKH [S14M] — higher, 1.85
- FCDMDKSLLCLLCANSQEHGAHKH [S14A] — higher, 1.87
- FCDMDKSLLCLLCVNSQEHGAHKH [S14V] — lower, 1.71
- FCDMDKSLLCLLCLNSQEHGAHKH [S14L] — higher, 2.08
- FCDMDKSLLCLLCQNSQEHGAHKH [S14Q] — higher, 2.09
- FCDMDKSLLCLLCPNSQEHGAHKH [S14P] — higher, 1.98
- FCDMDKSLLCLLCGNSQEHGAHKH [S14G] — higher, 2.26
- FCDMDKSLLCLLCWNSQEHGAHKH [S14W] — higher, 2.06
- FCDMDKSLLCLLCFNSQEHGAHKH [S14F] — lower, 1.45
- FCDMDKSLLCLLCNNSQEHGAHKH [S14N] — higher, 2.01
- FCDMDKSLLCLLCINSQEHGAHKH [S14I] — lower, 1.52
- FCDMDKSLLCLLCRNSQEHGAHKH [S14R] — higher, 2.2
- FCDMDKSLLCLLCKNSQEHGAHKH [S14K] — higher, 2.12
- FCDMDKSLLCLLCTNSQEHGAHKH [S14T] — higher, 2.02
- FCDMDKSLLCLLCHNSQEHGAHKH [S14H] — higher, 1.87
- FCDMDKSLLCLLCCNSQEHGAHKH [S14C] — higher, 1.88
- FCDMDKSLLCLLCENSQEHGAHKH [S14E] — higher, 2.02
- FCDMDKSLLCLLCYNSQEHGAHKH [S14Y] — higher, 1.82
- FCDMDKSLLCLLCSNHQEHGAHKH [S16H] — higher, 2
- FCDMDKSLLCLLCSNGQEHGAHKH [S16G] — higher, 2.22
- FCDMDKSLLCLLCSNWQEHGAHKH [S16W] — lower, 1.75
- FCDMDKSLLCLLCSNIQEHGAHKH [S16I] — lower, 1.57
- FCDMDKSLLCLLCSNKQEHGAHKH [S16K] — higher, 2.04
- FCDMDKSLLCLLCSNLQEHGAHKH [S16L] — higher, 2.15
- FCDMDKSLLCLLCSNPQEHGAHKH [S16P] — higher, 2.65
- FCDMDKSLLCLLCSNNQEHGAHKH [S16N] — higher, 2.06
- FCDMDKSLLCLLCSNMQEHGAHKH [S16M] — higher, 2.3
- FCDMDKSLLCLLCSNVQEHGAHKH [S16V] — higher, 2.23
- FCDMDKSLLCLLCSNYQEHGAHKH [S16Y] — lower, 1.79
- FCDMDKSLLCLLCSNDQEHGAHKH [S16D] — higher, 1.97
- FCDMDKSLLCLLCSNQQEHGAHKH [S16Q] — higher, 2.13
- FCDMDKSLLCLLCSNCQEHGAHKH [S16C] — higher, 1.87
- FCDMDKSLLCLLCSNRQEHGAHKH [S16R] — higher, 2.12
- FCDMDKSLLCLLCSNFQEHGAHKH [S16F] — higher, 2.13
- FCDMDKSLLCLLCSNAQEHGAHKH [S16A] — the same, 1.8
- FCDMDKSLLCLLCSNTQEHGAHKH [S16T] — higher, 2.07
- FCDMDKSLLCLLTSNSQEHGAHKH [C13T] — higher, 1.83
- FCDMDKSLLCLLWSNSQEHGAHKH [C13W] — higher, 2.72
- FCDMDKSLLCLLNSNSQEHGAHKH [C13N] — higher, 1.87
- FCDMDKSLLCLLVSNSQEHGAHKH [C13V] — higher, 2.3
- FCDMDKSLLCLLLSNSQEHGAHKH [C13L] — higher, 2.07
- FCDMDKSLLCLLSSNSQEHGAHKH [C13S] — lower, 1.61
- FCDMDKSLLCLLFSNSQEHGAHKH [C13F] — higher, 1.89
- FCDMDKSLLCLLASNSQEHGAHKH [C13A] — lower, 1.15
- FCDMDKSLLCLLKSNSQEHGAHKH [C13K] — higher, 2.15
- FCDMDKSLLCLLISNSQEHGAHKH [C13I] — higher, 2.04
- FCDMDKSLLCLLESNSQEHGAHKH [C13E] — higher, 2.13
